From patent publication US20220098289A1 (CONSEJO SUPERIOR DE INVESTIGACIONES CIENT FICAS, published 2022)

Molecular target: T1, human Aβ1-42 peptides (human, UniProt P05067 672-713)
T1 construct: domain: Aβ1-42; Synthetic peptide prepared to obtain minimal aggregation; also called Aβ peptides
Test: recombinant proteins mixed in vitro for 24 hrs at 37° C., then Western blot
Experimental: Protein-protein binding assays. Nanomolar concentrations of recombinant human SFRP1 (RD cat: 5396-SF-025) and human Aβ1-42 peptides (Invitrogen, cat: 03-111, prepared to obtain minimal peptide aggregation) were mixed in protein Lobind tubes (Eppendorf) for 24 hrs at 37° C. NuPAGE LDS sample buffer (4×) was added to the tubes, boiled for 5 min and subjected to Western blot analysis. Microplate-based solid-phase protein-protein binding assays was performed by immobilizing in wells 200 ng/well of either human Aβ1-42 peptides, BSA, used as a […] control because previously described as an Aβ interactor; or heparin, a described SFRP1 binding partner. Immobilization was performed overnight at 4° C. The wells were then washed with TBS 3× and incubated with two different SFRP1 concentrations for 2 hrs at RT. In the converse experiment, BSA, heparin or SFRP1 were immobilized overnight at 4° C. and two different concentrations of Aβ1-42 were added for 2 hrs at RT. The wells were washed 6× in TBS and 2× sample buffer containing β-mercaptoethanol was added to the well. The content was recovered by scrapping, boiled for 5 min and analyzed by SDS-PAGE followed by WB using anti-Sfrp1 or anti-Aβ antibodies, respectively.

T1 sequence (P05067 672-713 limits assumed): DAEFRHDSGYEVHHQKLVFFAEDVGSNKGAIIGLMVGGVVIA

B1: human recombinant SFRP1 (other, UniProt Q8N474 32-314, looked up)
chain: SEYDYVSFQSDIGPYQSGRFYTKPPQCVDIPADLRLCHNVGYKKMVLPNLLEHETMAEVKQQASSWVPLLNKNCHAGTQVFLCSLFAPVCLDRPIYPCRWLCEAVRDSCEPVMQFFGFYWPEMLKCDKFPEGDVCIAMTPPNATEASKPQGTTVCPPCDNELKSEAIIEHLCASEFALRMKIKEVKKENGDKKIVPKKKKPLKLGPIKKKDLKKLVLYLKNGADCPCHQLDNLSHHFLIMGRKVKSQYLLTAIHKWDKKNKEFKNFMKKMKNHECPTFQSVFK
notes: Bought recombinant protein; also called hSFRP1; recombinant hSFRP1
**Q.** Does B1 bind?
**A.** binds
